Assay results as given in article PMC10681739, “High-throughput data and modeling reveal insights into the mechanisms of cooperative DNA-binding by transcription factor proteins”.

T1: ETS1 (Homo sapiens, UniProt P14921)
T1 sequence: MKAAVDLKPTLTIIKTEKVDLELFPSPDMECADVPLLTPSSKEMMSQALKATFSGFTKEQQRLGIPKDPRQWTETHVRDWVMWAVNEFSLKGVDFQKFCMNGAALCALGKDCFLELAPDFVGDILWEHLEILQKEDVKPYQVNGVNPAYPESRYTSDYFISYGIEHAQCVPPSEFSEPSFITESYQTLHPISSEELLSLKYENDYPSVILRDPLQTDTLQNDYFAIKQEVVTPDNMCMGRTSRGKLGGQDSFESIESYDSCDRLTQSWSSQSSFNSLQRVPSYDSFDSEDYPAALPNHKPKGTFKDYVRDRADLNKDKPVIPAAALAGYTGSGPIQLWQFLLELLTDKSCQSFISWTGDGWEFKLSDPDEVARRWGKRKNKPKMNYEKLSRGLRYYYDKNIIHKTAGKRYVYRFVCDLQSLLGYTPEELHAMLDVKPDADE

B1: Table S2 B row 3902 (dsDNA)
DNA 1: TGGGGCCCGGAAGCGCTGGCGCCTTACGGCCAGAAG
DNA 2: CTTCTGGCCGTAAGGCGCCAGCGCTTCCGGGCCCCA
B2: Table S2 B row 3602 (dsDNA)
DNA 1: TGTCGGGCGGATGTGTACCGGCGTTAATATAGTAAG
DNA 2: CTTACTATATTAACGCCGGTACACATCCGCCCGACA
B3: Table S2 B row 1042 (dsDNA)
DNA 1: GGTCCGGATGTATAAAGCGCGGCCCCCTGGGGGGAG
DNA 2: CTCCCCCCAGGGGGCCGCGCTTTATACATCCGGACC
B4: Table S2 B row 306 (dsDNA)
DNA 1: GAGAAACAGGAAGAGGGGTGGTGCTTACGGAACACG
DNA 2: CGTGTTCCGTAAGCACCACCCCTCTTCCTGTTTCTC
B5: Table S2 B row 544 (dsDNA)
DNA 1: GCTCCCGGATGTTCTGGGGATCAGCGCCCGCCTGGC
DNA 2: GCCAGGCGGGCGCTGATCCCCAGAACATCCGGGAGC
B6: Table S2 B row 540 (dsDNA)
DNA 1: AACAAACCGGATGGGGTTGCCACCTGCAATCTTGTC
DNA 2: GACAAGATTGCAGGTGGCAACCCCATCCGGTTTGTT
B7: Table S2 B row 3281 (dsDNA)
DNA 1: GACCTGACAACATCCTGGCGCAGTGAGTTGGCCCTG
DNA 2: CAGGGCCAACTCACTGCGCCAGGATGTTGTCAGGTC
B8: Table S2 B row 145 (dsDNA)
DNA 1: CCACCATCTTTCCGGCTCCCTCGCGACCTCCACGAC
DNA 2: GTCGTGGAGGTCGCGAGGGAGCCGGAAAGATGGTGG
B9: Table S2 B row 575 (dsDNA)
DNA 1: GCAGTGCAGGAAGTGCTTTGTCTGGTACAATCCCAA
DNA 2: TTGGGATTGTACCAGACAAAGCACTTCCTGCACTGC
B10: Table S2 B row 2920 (dsDNA)
DNA 1: GGCGCTAGGCTTCCGGATCGCGCTGGGCGGAGTTCA
DNA 2: TGAACTCCGCCCAGCGCGATCCGGAAGCCTAGCGCC
B11: Table S2 B row 799 (dsDNA)
DNA 1: ATGAACCACTTCCTGTGTGTTCCCAGAGAGGTCAGG
DNA 2: CCTGACCTCTCTGGGAACACACAGGAAGTGGTTCAT
B12: Table S2 B row 1606 (dsDNA)
DNA 1: CCGCTTCCTTAGAGGTTAAGTGGTGGAGGTTCAGTT
DNA 2: AACTGAACCTCCACCACTTAACCTCTAAGGAAGCGG
B13: Table S2 B row 479 (dsDNA)
DNA 1: CACTTCCCCCAGCCTCTCTTTTTAATACGACAATAG
DNA 2: CTATTGTCGTATTAAAAAGAGAGGCTGGGGGAAGTG
B14: Table S2 B row 3084 (dsDNA)
DNA 1: TTTGCACACATCCTGGCCTCCGCCTGAGCACCTCCT
DNA 2: AGGAGGTGCTCAGGCGGAGGCCAGGATGTGTGCAAA
B15: Table S2 B row 1126 (dsDNA)
DNA 1: TCCAGCCCCACCGGAAGTGGATGTGATTAATCTAGT
DNA 2: ACTAGATTAATCACATCCACTTCCGGTGGGGCTGGA
B16: Table S2 B row 3477 (dsDNA)
DNA 1: CTACCGGGAGTGCAGGTCGCGCTTCCGGCGGCGTCC
DNA 2: GGACGCCGCCGGAAGCGCGACCTGCACTCCCGGTAG
B17: Table S2 B row 159 (dsDNA)
DNA 1: GTAAAAGAGGAAGTAACACCTCCTTGACGTTGAGAC
DNA 2: GTCTCAACGTCAAGGAGGTGTTACTTCCTCTTTTAC
B18: Table S2 B row 1163 (dsDNA)
DNA 1: ATCACTTGTTTCCGCCAGCAAATCACAGGTCCCCAG
DNA 2: CTGGGGACCTGTGATTTGCTGGCGGAAACAAGTGAT
B19: Table S2 B row 4083 (dsDNA)
DNA 1: GCCCCAGCGTTTCCTCTTACCCAAAATGCCCCGCCC
DNA 2: GGGCGGGGCATTTTGGGTAAGAGGAAACGCTGGGGC
B20: Table S2 B row 1731 (dsDNA)
DNA 1: GACTGGTTTCCTGGTTTTGATGTAGTTTAGAGAAAA
DNA 2: TTTTCTCTAAACTACATCAAAACCAGGAAACCAGTC
B21: Table S2 B row 1979 (dsDNA)
DNA 1: CTGAAACAGGAAGCTGAGGGTGCCGTTGGGGGAGGA
DNA 2: TCCTCCCCCAACGGCACCCTCAGCTTCCTGTTTCAG
B22: Table S2 B row 1543 (dsDNA)
DNA 1: AAACCAGAGAGGAAGTGGCACCTCATGGCCAGACTG
DNA 2: CAGTCTGGCCATGAGGTGCCACTTCCTCTCTGGTTT
B23: Table S2 B row 875 (dsDNA)
DNA 1: AGGCAGCACAGGAAGTTATAACTACATGTACACTTG
DNA 2: CAAGTGTACATGTAGTTATAACTTCCTGTGCTGCCT
B24: Table S2 B row 813 (dsDNA)
DNA 1: TGATGTAGAATCCGCTCGGCTTCCGGCGAGGGTGGG
DNA 2: CCCACCCTCGCCGGAAGCCGAGCGGATTCTACATCA
B25: Table S2 B row 573 (dsDNA)
DNA 1: GCCACCGTATTTCCGCGTTTTTCGAGGTAGGCGGGA
DNA 2: TCCCGCCTACCTCGAAAAACGCGGAAATACGGTGGC
B26: Table S3 B row 1801 (dsDNA)
DNA 1: ACTCTAACCGCAGTGACGTGGGACCTCCTCGGCAGG
DNA 2: CCTGCCGAGGAGGTCCCACGTCACTGCGGTTAGAGT
B27: Table S3 B row 584 (dsDNA)
DNA 1: GTCCTCTTTGTGGTTTCCATTTGCTTTGTGAAAGAG
DNA 2: CTCTTTCACAAAGCAAATGGAAACCACAAAGAGGAC
B28: Table S3 B row 3344 (dsDNA)
DNA 1: CCGAAGCCTGCGGTTTCATGTGGGAGCAAGCGGCCT
DNA 2: AGGCCGCTTGCTCCCACATGAAACCGCAGGCTTCGG
B29: Table S3 B row 3808 (dsDNA)
DNA 1: GCCCTTCTTGCGGTTTTCATGGCAGGGTGTTAACAT
DNA 2: ATGTTAACACCCTGCCATGAAAACCGCAAGAAGGGC
B30: Table S3 B row 1477 (dsDNA)
DNA 1: TTCTTTGGTCAACCGCAAGCCTCTGCCGCGTCTCGC
DNA 2: GCGAGACGCGGCAGAGGCTTGCGGTTGACCAAAGAA
B31: Table S3 B row 272 (dsDNA)
DNA 1: ACGAGGTTGCGGTTTCTCCACCTCCTCAACAACCTG
DNA 2: CAGGTTGTTGAGGAGGTGGAGAAACCGCAACCTCGT
B32: Table S3 B row 2222 (dsDNA)
DNA 1: CAGAAACCGCAGAACTGAGCTGACGACCCGGGAGTG
DNA 2: CACTCCCGGGTCGTCAGCTCAGTTCTGCGGTTTCTG
B33: Table S3 B row 1798 (dsDNA)
DNA 1: CTCTCTTGCGGTTTGCAGCCAGATCACCTCCCATAC
DNA 2: GTATGGGAGGTGATCTGGCTGCAAACCGCAAGAGAG
B34: Table S3 B row 3235 (dsDNA)
DNA 1: AAGTCAAAACCGCAAACGCTCAGTAAAAAAGACTCT
DNA 2: AGAGTCTTTTTTACTGAGCGTTTGCGGTTTTGACTT
B35: Table S3 B row 943 (dsDNA)
DNA 1: TGTTTGCGGTTTAGACCCCAAAGATTCATGTTGGTA
DNA 2: TACCAACATGAATCTTTGGGGTCTAAACCGCAAACA
B36: Table S3 B row 3820 (dsDNA)
DNA 1: TTTTGCGGTTTTTGATCTGGAAGCCACACAGCCTTA
DNA 2: TAAGGCTGTGTGGCTTCCAGATCAAAAACCGCAAAA
B37: Table S3 B row 3968 (dsDNA)
DNA 1: CCGAGTTGCGGTTTCTCCGTTAGTGCTTACGGGTTG
DNA 2: CAACCCGTAAGCACTAACGGAGAAACCGCAACTCGG
B38: Table S3 B row 2580 (dsDNA)
DNA 1: GTCGCTGCGGTTTTGGGGTTGGCATGCTGTCCTCTG
DNA 2: CAGAGGACAGCATGCCAACCCCAAAACCGCAGCGAC
B39: Table S3 B row 852 (dsDNA)
DNA 1: CGGCAGCTTGCGGTTAGCCGTTCTTTCAGCCCAGTT
DNA 2: AACTGGGCTGAAAGAACGGCTAACCGCAAGCTGCCG
B40: Table S3 B row 2036 (dsDNA)
DNA 1: GATTGCGGTTGGGACTTTCCCTAAGTCATTTGCTGT
DNA 2: ACAGCAAATGACTTAGGGAAAGTCCCAACCGCAATC
B41: Table S3 B row 3447 (dsDNA)
DNA 1: TGATTGCGGTTTCGGTCGCTCTCCCGTGTTTGCCGG
DNA 2: CCGGCAAACACGGGAGAGCGACCGAAACCGCAATCA

molecular target: T1, ETS1; assay: gcPBM; 1 nM ETS1; conditions: tags: N-terminal GST (pDEST15), kept (PMC6008103); label: surface-attached array probe

| Binder | binding signal |
| --- | --- |
| B1 | 3570 PBM fluorescence, median of replicate spots |
| B2 | 2800 PBM fluorescence, median of replicate spots |
| B3 | 2790 PBM fluorescence, median of replicate spots |
| B4 | 2960 PBM fluorescence, median of replicate spots |
| B5 | 3300 PBM fluorescence, median of replicate spots |
| B6 | 3220 PBM fluorescence, median of replicate spots |
| B7 | 3720 PBM fluorescence, median of replicate spots |
| B8 | 3090 PBM fluorescence, median of replicate spots |
| B9 | 4090 PBM fluorescence, median of replicate spots |
| B10 | 2860 PBM fluorescence, median of replicate spots |
| B11 | 25100 PBM fluorescence, median of replicate spots |
| B12 | 3060 PBM fluorescence, median of replicate spots |
| B13 | 2920 PBM fluorescence, median of replicate spots |
| B14 | 3370 PBM fluorescence, median of replicate spots |
| B15 | 25900 PBM fluorescence, median of replicate spots |
| B16 | 3610 PBM fluorescence, median of replicate spots |
| B17 | 2720 PBM fluorescence, median of replicate spots |
| B18 | 3770 PBM fluorescence, median of replicate spots |
| B19 | 3440 PBM fluorescence, median of replicate spots |
| B20 | 3820 PBM fluorescence, median of replicate spots |
| B21 | 3960 PBM fluorescence, median of replicate spots |
| B22 | 3160 PBM fluorescence, median of replicate spots |
| B23 | 4250 PBM fluorescence, median of replicate spots |
| B24 | 4160 PBM fluorescence, median of replicate spots |
| B25 | 3870 PBM fluorescence, median of replicate spots |

molecular target: RUNX1 (Homo sapiens, UniProt Q01196); assay: gcPBM; 2 nM RUNX1; conditions: tags: N-terminal GST (pDEST15), kept (PMC6008103); label: surface-attached array probe
Sequence (Q01196 whole entry): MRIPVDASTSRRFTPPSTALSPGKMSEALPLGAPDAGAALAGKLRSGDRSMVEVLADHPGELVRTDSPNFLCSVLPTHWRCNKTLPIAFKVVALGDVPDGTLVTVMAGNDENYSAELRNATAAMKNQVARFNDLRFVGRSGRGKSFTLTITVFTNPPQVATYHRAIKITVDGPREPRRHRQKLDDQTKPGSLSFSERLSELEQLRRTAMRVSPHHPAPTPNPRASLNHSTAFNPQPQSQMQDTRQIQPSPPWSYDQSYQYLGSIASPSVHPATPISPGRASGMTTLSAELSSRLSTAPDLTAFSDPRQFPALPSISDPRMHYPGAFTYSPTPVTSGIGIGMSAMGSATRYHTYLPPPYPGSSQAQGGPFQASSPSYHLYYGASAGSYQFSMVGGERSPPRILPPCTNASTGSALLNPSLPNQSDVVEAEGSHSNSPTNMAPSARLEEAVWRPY

| Binder | binding signal |
| --- | --- |
| B26 | 46700 PBM fluorescence, median of replicate spots |
| B27 | 34700 PBM fluorescence, median of replicate spots |
| B28 | 37500 PBM fluorescence, median of replicate spots |
| B29 | 60800 PBM fluorescence, median of replicate spots |
| B30 | 37300 PBM fluorescence, median of replicate spots |
| B31 | 32700 PBM fluorescence, median of replicate spots |
| B32 | 42300 PBM fluorescence, median of replicate spots |
| B33 | 37400 PBM fluorescence, median of replicate spots |
| B34 | 42400 PBM fluorescence, median of replicate spots |
| B35 | 38700 PBM fluorescence, median of replicate spots |
| B36 | 57800 PBM fluorescence, median of replicate spots |
| B37 | 54300 PBM fluorescence, median of replicate spots |
| B38 | 58800 PBM fluorescence, median of replicate spots |
| B39 | 48900 PBM fluorescence, median of replicate spots |
| B40 | 53200 PBM fluorescence, median of replicate spots |
| B41 | 50800 PBM fluorescence, median of replicate spots |
